Laboratory results: patent publication US20170204184A1 (CB THERAPEUTICS, published 2017)

B1: hu13C5-hIgG1 (antibody)
heavy: not shown
light: DIVLTQSPASLAVSPGQRATITCRASQSVSTSSSSFMHWYQQKPGQPPKLLIKYASNLESGVPARFSGSGSGTDFTLTINPVEANDTANYYCQHSWEIPYTFGQGTKLEIKRTVAAPSVFIFPPSDEQLKSGTASVVCLLNNFYPREAKVQWKVDNALQSGNSQESVTEQDSKDSTYSLSSTLTLSKADYEKHKVYACEVTHQGLSSPVTKSFNRGEC
notes: Humanized IgG1 with D265A; also called Humanized 13C5-IgG1 (D265A); hu-13C5-IgG1
B2: hu13C5-hIgG4 (antibody)
heavy: not shown
light: B1 light
notes: Humanized IgG4 with F234A and L235A; also called Humanized 13C5-IgG4 (F234A/L235A); hu-13C5-IgG4
B3: ch5G11-hIgG1 (antibody)
heavy: not shown
light: SIVMTQTPKFLLVSAGDRVTITCKASQSVSNDVAWYQQKPGQSPKLLIYYAANRYTGVPDRFTGSGYGTDFTFTISIVQAEDLAVYFCQQDYTSPYTFGGGTKLEIKRTVAAPSVFIFPPSDEQLKSGTASVVCLLNNFYPREAKVQWKVDNALQSGNSQESVTEQDSKDSTYSLSSTLTLSKADYEKHKVYACEVTHQGLSSPVTKSFNRGEC
notes: Mouse-human chimeric IgG1 (D265A), human kappa; also called Chimeric 5G11-IgG1 (D265A); ch-5G11-IgG1
B4: ch5G11-hIgG4 (antibody)
heavy: not shown
light: B3 light
notes: Mouse-human chimeric IgG4 (F234A/L235A), human kappa; also called Chimeric 5G11-IgG4 (F234A/L235A); ch-5G11-IgG4
B5: hu5G11-hIgG1 (antibody)
heavy: not shown
light: DIQMTQSPSSLSASVGDRVTITCKASQSVSNDVAWYQQKPGKAPKLLIYYAANRYTGVPDRFSGSGYGTDFTFTISSLQPEDIATYFCQQDYTSPYTFGQGTKLEIKRTVAAPSVFIFPPSDEQLKSGTASVVCLLNNFYPREAKVQWKVDNALQSGNSQESVTEQDSKDSTYSLSSTLTLSKADYEKHKVYACEVTHQGLSSPVTKSFNRGEC
notes: Humanized IgG1 with D265A; also called Humanized 5G11-IgG1 (D265A); hu-5G11-IgG1
B6: hu5G11-hIgG4 (antibody)
heavy: not shown
light: B5 light
notes: Humanized IgG4 with F234A and L235A; also called Humanized 5G11-IgG4 (F234A/L235A); hu-5G11-IgG4
B7: ch8H4-hIgG4 (antibody, V domains shown)
VH: EVKLVESGGGLVKPGGSLKLSCAASGFTFRSYGMSWARQIPEKRLEWVASISSGGTTYYLGSVQGRFTISRDNARNILYLQMSSLRSEDTAMYYCARGYDAGFAYWGQGTLVSVSS
VL: DIVLTQSPASLAVSLGQRATISCRASQSVSTSSYSYMHWYQQKPGQPPKLLIKYASNLESGVPARFSGSGSGTDFTLNIHPVEEEDTATYYCQNSWEIPYTFGGGTKLEIKR
notes: Mouse-human chimeric IgG4 (F234A/L235A), human kappa; also called Chimeric 8H4-IgG4 (F234A/L235A); chimeric 8H4-hIgG4
B8: ch8C6-hIgG4 (antibody, V domains shown)
VH: QVQLKQSGPGLVQPSQSLSITCTVSGFSLTSYGVHWVRQSPGKGLEWLGVIWSGGVTDYNAAFISRLSISKDNSKSQVFFKMNSLQANDTAIYYCARLGFYAMDYWGQGTSVTVSS
VL: SIVMTQTPKFLLVSAGDRVTITCKASQSVSNDVGWYQQKPGQSPKLLIYYASNRYSGVPDRFTGSGYGTDFTFTISTVQAEDLAVYFCQQDYTSPYTFGGGTKLEIKR
notes: Mouse-human chimeric IgG4 (F234A/L235A), human kappa; also called Chimeric 8C6-IgG4 (F234A/L235A); chimeric 8C6-hIgG4
B9: hu13C5 (antibody)
VH: EVQLVESGGGLVKPGGSLRLSCAASGFIFRSYGMSWVRQAPGKGLEWVASISSGGSTYYPDSVKGRFTISRDNAKNSLYLQMNSLRAEDTAVYDCARGYDSGFAYWGQGTLVTVSS
light: B1 light
B10: hu5G11 (antibody)
VH: QITLKESGPTLVKPTQTLTLTCTVSGFSLSTYGVHWIRQPPGKALEWLGVIWRGVTTDYNAAFMSRLTITKDNSKNQVVLTMNNMDPVDTATYYCARLGFYAMDYWGQGTLVTVSS
light: B5 light

Molecular target: T1, PD-L1 on 293T cells (UniProt Q9NZQ7 19-290)
T1 construct: whole, on cells; also called PD-L1-293T; 293T-PD-L1 cells
Experiment: flow cytometry on PD-L1-293T cells
Procedure: Cell binding analyses of anti-PD-L1 antibodies were performed based on binding to a 293T cell line stably expressing PD-L1 (PD-L1-293T). 2×10⁵ 293T-PD-L1 cells were added into each well of 96-well culture plates and incubated with the indicated antibody (20 μg/ml with the dilution of 1:5) at 4° C. for 1 h. After the cells were washed three times with FACS buffer, the secondary antibody (PE Goat anti-mouse: 1:200; PE mouse anti-human: 1:10) was added to the cells at 100 μl/well, and incubated at 4° C. for 40 min. Cells were washed three times with FACS buffer and analyzed by FACS Array.

Row | EC50 [µg/mL] | Binder
1 | 0.08 | B1
2 | 0.0804 | B2
3 | 0.0583 | B3
4 | 0.0897 | B4
5 | 0.0479 | B5
6 | 0.0543 | B6

Molecular target: T1, PD-L1 on 293T cells
Experiment: flow cytometry competition: blocks biotin-labeled PD-1 binding to PD-L1-293T cells
Procedure: Briefly, PD-L1-293T cells were suspended in FACS buffer (PBS with 3% fetal calf serum). Various concentrations of the hybridoma (FIG. 10), chimeric (FIG. 11), or humanized (FIG. 12) anti-PD-L1 antibodies were added to the cell suspension and incubated at 4° C. for 60 minutes in 96 well plates. […] The cells were washed 3 times with PBS and incubated with mouse anti-biotin PE (Biolegend, cat# 409004). The cell-associated fluorescence was then detected by flow cytometry analysis using FACS array.

Row | IC50 [µg/mL] | Binder
7 | 0.042 | B7
8 | 0.0185 | B1
9 | 0.0499 | B2
10 | 0.0404 | B3
11 | 0.0332 | B4
12 | 0.0349 | B8
13 | 0.0165 | B5
14 | 0.0096 | B6

Molecular target: T2, biotinylated human PD-L1-mFc (human, biotinylated (sites not given))
T2 construct: also called PDL-1-mFc-biotin
Experiment: competition ELISA: blocks PD-L1-mFc-biotin binding to coated PD-1-hFc
Procedure: The wells were aspirated and non-specific binding sites were blocked by adding 200 μL of blocking buffer (PBS with 1% (w/v) of bovine serum albumin (BSA, Roche, Cat No:738328)) and incubating for 1 hour at 37° C. After the plate was washed three times with wash buffer (PBS with 0.05% (v/v) Tween20 (Sigma, Cat No:P1379)), 100 μL/well of 1:3 serial dilutions of hybridoma (FIG. 4), chimeric (FIG. 5), or humanized (FIG. 6) anti-PD-L1 antibodies in blocking buffer (starting from 20 μg/mL) were added and incubated at 37° C. for 1 hour. […] After the plate was washed 3 times, secondary antibody (Avidin HRP eBioscience cat No.: E07418-1632, 1:500, 100 μl/well) was added and incubated at 37° C. for 0.5 hour. After the plate was washed, 100 μL/well of substrate solution TMB (eBioscience, Cat No: 00-4201-56) was added and the plate was incubated for 3min at room temperature. 100 μL/well of stop solution (2N H₂SO₄) was added to stop the reaction. The colorimetric signals were developed and read at 450 nm using an Auto Plate SpectraMax Plus (Supplier: Moleculer Devices; Model: MNR0643; Software: SoftMax Pro v5.4). Data were analyzed using GraphPad Prism 5 and IC50 was calculated (FIGS. 4-6; Tables 8-10).

Row | IC50 [µg/mL] | Binder
15 | 0.848 | B7
16 | 1.2 | B1
17 | 1.19 | B2
18 | 1.01 | B3
19 | 0.926 | B4
20 | 0.477 | B8
21 | 0.794 | B5
22 | 0.823 | B6

Molecular target: T3, Human PD-L1 (human, UniProt Q9NZQ7 19-238, limits assumed)
T3 construct: also called PD-L1 analyte (Biacore); hPD-L1
Experiment: SPR (Biacore 3000), antibody captured, PD-L1 as analyte, 1:1 fit
Procedure: (§1) The binding kinetics between PD-L1 and PD-L1 antibodies were measured by Biacore analysis, which was performed at 25° C. on a Biacore3000 instrument and recorded with a data collection rate of 1 Hz. Polyclonal rabbit anti-mouse IgG (GE, BR-1008-38) was diluted with 10 mM pH 5.0 sodium acetate and immobilized onto reference and experiment flow cells of a CM5 biosensor chip to around 15000 RU using an amine coupling kit (GE, BR10050). […] PD-L1 analyte series were prepared by diluting the stocks with running buffer to 100 nM followed by 2× serial dilution in the same buffer down to 0.78 nM. Analytes were injected in series over the reference and experiment flow cells for 3 minutes at a flow rate of 30 μL/minute. Running buffer (PBS with 0.05% P20) was allowed to flow over for 10 minutes at a flow rate of 30 μL/minute. At the end of each cycle, the biosensor surface was regenerated with 3 minutes injection of 10 mM pH1.7 Glycine-HCl buffer at a flow rate of 10 μL/minute. For each analyte sample injection (i.e. each cycle), binding responses obtained from the experimental biosensor surface were double referenced by subtracting simultaneously recorded responses from the reference surface followed by additional subtraction of responses from a single referenced running buffer sample. The association and dissociation rate constants (ka and kd) were determined simultaneously by fitting double-referenced sensorgrams of the entire titration series to Langmuir model (1:1) using Biaevaluation 4.0 software. The dissociation constant, KD, was calculated from the determined rate constants by the relation KD=kd/ka.

Row | Kd [nM] | Binder
23 | 1.74 | B9
24 | 0.225 | B10

Molecular target: T4, cynomolgus PD-L1 (cynomolgus, UniProt G7PSE7 19-238)
T4 construct: also called Cyno-PD-L1; cyno-PD-L1; not shown: Any tag or Fc carrier on the soluble cynomolgus PD-L1 analyte
Experiment: as above
Procedure: as §1

Row | Kd [nM] | Binder
25 | 2.43 | B9
26 | 0.275 | B10

Molecular target: T5, hPD-L1-mFc (human)
T5 construct: it may hold a signal peptide; also called human PD-L1-mFc; PD-L1-mFc (Crownbio)
Experiment: ELISA, coated PD-L1-mFc
Procedure: ELISA binding analyses were conducted based on human PD-L1-mFc (for chimeric and humanized antibody detection) and PD-L1-hFc protein (for hybridoma antibody detection). 96-well plates (Costar, Cat No: 9018) were coated with 100 μL of 2 μg/ml PD-L1-mFc (Crownbio) in coating buffer PBS (Hyclone, Cat No: SH30256.01B) overnight at 4° C. The wells were aspirated and non-specific binding sites were blocked by adding 200 μL of blocking buffer (PBS with 1% (w/v) of bovine serum albumin (BSA, Roche, Cat No:738328)) and incubating for 1 hour at 37° C. After the plates were washed three times with wash buffer (PBS with 0.05% (v/v) Tween20 (Sigma, Cat No:P1379)), 100 μL/well of 1:10 serial dilutions of hybridoma (FIG. 1), chimeric (FIG. 2), or humanized (FIG. 3) anti-PD-L1 antibodies in blocking buffer (starting from 20 μg/mL) were added and incubated at room temperature for 1 hour. The plates were washed and incubated with 100 μL/well of Goat anti-Mouse IgG (H+L) (Thermo, Cat No: 31432) in blocking buffer for 60 min. After the plates were washed, 100 μL/well of substrate solution TMB (eBioscience, Cat No: 00-4201-56) were added and the plates were incubated for 2 min at room temperature. 100 μL/well of stop solution (2N H₂SO₄) was added to stop the reaction. The colorimetric signals were developed and read at 450 nm using an Auto Plate SpectraMax Plus (Supplier: Moleculer Devices; Model: MNR0643; Software: SoftMax Pro v5.4). Data were analyzed using GraphPad Prism 5 and EC50 was calculated (FIGS. 1-3; Tables 5-7).

Row | EC50 [µg/mL] | Binder
27 | 0.134 | B7
28 | 0.0856 | B1
29 | 0.127 | B2
30 | 0.0821 | B3
31 | 0.09 | B4
32 | 0.076 | B8
33 | 0.0495 | B5
34 | 0.0699 | B6
